Two molecules from patent publication US20090238886A1 can be followed below.

Where no end group is shown, it is not given here. The star is where a group is joined. Dansyl = CN(C)c1cccc2c(S(=O)(=O)*)cccc12

The target of test [1] is Caco-2 cell membrane (P100) fractions. The test is described as follows: ELISA on coated Caco-2 P100 fraction, anti-dansyl detection; assay 5, peptide at 25 µg/ml. (In an ELISA, binding on a coated surface is turned into a signal by an enzyme label.)
For test [2] the target is unchanged. The test is described as follows: ELISA on coated Caco-2 P100 fraction, anti-dansyl detection; assay 1, peptide at 20 µg/ml.
Test [3] shares this target. The test is described as follows: ELISA on coated Caco-2 P100 fraction, anti-dansyl detection; assay 4, peptide at 25 µg/ml.
The target is the same in test [4]. The test is described as follows: ELISA on coated Caco-2 P100 fraction, anti-dansyl detection; assay 6, peptide at 25 µg/ml.
The target is the same in test [5]. The test is described as follows: ELISA on coated Caco-2 P100 fraction, anti-dansyl detection; assay 8, peptide at 25 µg/ml.
For test [6] the target is unchanged. The test is described as follows: ELISA on coated Caco-2 P100 fraction, anti-dansyl detection; assay 2, peptide at 50 µg/ml.
Test [7] has the same target. The test is described as follows: ELISA on coated Caco-2 P100 fraction, anti-dansyl detection; assay 3, peptide at 50 µg/ml.
Test [8] shares this target. The test is described as follows: ELISA on coated Caco-2 P100 fraction, anti-dansyl detection; assay 7, peptide at 25 µg/ml.

For K(Dansyl)SDHALGTNLRSDNAKEPGDYNCCGNGNSTGRKVFNRRRPSAIPT (cysteine pairing not given here) [ZElan021, full length HAX42], the binding to P100 relative to ZElan021 (arbitrary value 1.00) was 1 in test [1]; 1 in test [2]; 1 in test [3]; 1 in test [4]; 0.94 in test [5]; 1 in test [6]. Further, the binding to P100 relative to ZElan021 (arbitrary value 1.00) in test [7] was determined as 1; in test [8] it was 1.14.

Regarding K(Dansyl)PGDYNCCGNGNSTG (cysteine pairing not given here) [ZElan091, HAX42 14 mer fragment], the binding to P100 relative to ZElan021 (arbitrary value 1.00) worked out at 1.37 in test [1], 2.02 in test [3], 1.2 in test [4] and 0.85 in test [8].
